The values that follow come from patent US20230331829A1 (KOREA ADVANCED INSTITUTE OF SCIENCE AND TECHNOLOGY, published 2023).

This assay concerns the target T1, PROX1 protein of mouse retinal tissue (mouse, UniProt P48437 1-737).
T1 construct: Endogenous protein
T1 sequence (looked up): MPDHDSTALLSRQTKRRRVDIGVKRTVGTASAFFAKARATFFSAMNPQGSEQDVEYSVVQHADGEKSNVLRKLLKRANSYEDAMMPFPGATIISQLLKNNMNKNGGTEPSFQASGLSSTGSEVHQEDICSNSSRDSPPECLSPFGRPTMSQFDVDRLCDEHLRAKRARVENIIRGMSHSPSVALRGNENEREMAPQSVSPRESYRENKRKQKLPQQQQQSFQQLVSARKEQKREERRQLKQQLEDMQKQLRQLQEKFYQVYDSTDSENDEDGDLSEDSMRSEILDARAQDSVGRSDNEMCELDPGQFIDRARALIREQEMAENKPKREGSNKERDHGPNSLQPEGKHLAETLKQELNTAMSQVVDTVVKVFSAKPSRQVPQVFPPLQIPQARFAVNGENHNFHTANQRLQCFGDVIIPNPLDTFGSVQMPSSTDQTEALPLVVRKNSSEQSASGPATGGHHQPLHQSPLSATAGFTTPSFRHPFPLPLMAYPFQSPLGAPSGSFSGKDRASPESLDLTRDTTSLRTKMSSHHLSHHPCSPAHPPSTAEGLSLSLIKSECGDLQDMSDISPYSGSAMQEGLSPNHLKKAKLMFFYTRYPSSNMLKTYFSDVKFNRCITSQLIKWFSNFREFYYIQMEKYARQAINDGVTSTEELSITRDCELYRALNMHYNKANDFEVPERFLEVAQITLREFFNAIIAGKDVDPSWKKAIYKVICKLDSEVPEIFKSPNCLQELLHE
The assay can be described thus: immunoprecipitation with Ni-NTA beads from mouse retinal tissue lysate, Western blot. The method, then:
Protein samples were prepared from mice cortex tissue not expressing PROX1 protein and mouse retinal tissue expressing PROX1 protein and PROX1 neutralizing single chain antibody (anti-PROX1-scFv-His) at 4° C. for 16 hours, followed by Ni-NTA beads for 4 hours. Thereafter, the Ni-NTA bead immune complex was washed five times with a washing buffer (50 mM imidazole and protease inhibitor) and a Western blot experiment was performed to confirm the binding ability of the single chain antibody to the PROX1 protein.
Thereafter, the Ni-NTA bead immune complex was washed 5 times with a washing buffer (50 mM imidazole and protease inhibitor) and a Western blot experiment was performed to confirm the binding ability of the PROX1 neutralizing single chain antibody to the PROX1 protein (see FIG. 1).

B1: anti-PROX1-single chain Fv-His (clone #1A11) (scFv, V domains shown)
VH: AVTLDESGGGLQTPGGGLSLVCKASGFTFSSYAMNWVRQAPGKGLEWVAAIDDDGSYTGYGSAVKGRATISRDNGQSTVRLQLNNLRAEDTAIYYCAKAAGSGYCYRGANSSYTCGTYNAGDIDAWGHGTEVIVSS
VL: LTQPSSVSANLGETVEITCSGGSGSYGWYQQKSPGSAPVTLIYDNANRPSNIPSRFSGSKSGSTGTLTITGVRAEDEAVYYCGNVDSSTYVGMFGAGTTLTVL
notes: One polypeptide (scFv from a chicken antibody phage display library) with a hexa-histidine tag; used as phage periplasmic supernatant; also called anti-PROX1-scFv-His; scFv-His
Regarding B1, the binding result is on record as “binds”.
